Data reported in US10919943B2, “Mutant proteins enabling agrochemical control of plant gene expression” (The Regents of the University of California, priority 2016, dated 2021).

System: HAB1
Assay: Yeast two hybrid of pBD-PYR1 site saturation mutants with pACT-HAB1 on 10 μM ABA, β-galactosidase staining
Type: cell-based, Arabidopsis
Parameters: key: x: Mutations in PYR1 that disrupt ABA-induced binding to PYR1 to HAB1
Conditions: S. cerevisiae Y190, 10 μM ABA; dead = lack of visible staining in comparison to wild type control
In short: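 S. cerevisiae Y190 co-expressing GAL4-DNA-binding-domain–PYR1 mutants and GAL4-activation-domain–HAB1 were spotted on SD (-Leu, -Trp) agar with 10 μM (+)-ABA for 2 days at 30° C. Colonies were chloroform-lysed and stained for β-galactosidase. Mutants lacking visible staining relative to wild type were scored as non-binding.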

Molecule | Mutations in PYR1 that disrupt ABA-induced binding to PYR1 to HAB1
R116E: PYR1 mutant (protein, UniProt O49686 1-191, looked up, variant R116E) Abscisic acid receptor PYR1: MPSELTPEERSELKNSIAEFHTYQLDPGSCSSLHAQRIHAPPELVWSIVRRFDKPQTYKHFIKSCSVEQNFEMRVGCTRDVIVISGLPANTSTERLDILDDERRVTGFSIIGGEHELTNYKSVTTVHRFEKENRIWTVVLESYVVDMPEGNSEDDTRMFADTVVKLNLQKLATVAEAMARNSGDGSGSQVT | x
L117S: PYR1 mutant (protein, UniProt O49686 1-191, looked up, variant L117S) Abscisic acid receptor PYR1: MPSELTPEERSELKNSIAEFHTYQLDPGSCSSLHAQRIHAPPELVWSIVRRFDKPQTYKHFIKSCSVEQNFEMRVGCTRDVIVISGLPANTSTERLDILDDERRVTGFSIIGGEHRSTNYKSVTTVHRFEKENRIWTVVLESYVVDMPEGNSEDDTRMFADTVVKLNLQKLATVAEAMARNSGDGSGSQVT | x
L117Y: PYR1 mutant (protein, UniProt O49686 1-191, looked up, variant L117Y) Abscisic acid receptor PYR1: MPSELTPEERSELKNSIAEFHTYQLDPGSCSSLHAQRIHAPPELVWSIVRRFDKPQTYKHFIKSCSVEQNFEMRVGCTRDVIVISGLPANTSTERLDILDDERRVTGFSIIGGEHRYTNYKSVTTVHRFEKENRIWTVVLESYVVDMPEGNSEDDTRMFADTVVKLNLQKLATVAEAMARNSGDGSGSQVT | x
L117G: PYR1 mutant (protein, UniProt O49686 1-191, looked up, variant L117G) Abscisic acid receptor PYR1: MPSELTPEERSELKNSIAEFHTYQLDPGSCSSLHAQRIHAPPELVWSIVRRFDKPQTYKHFIKSCSVEQNFEMRVGCTRDVIVISGLPANTSTERLDILDDERRVTGFSIIGGEHRGTNYKSVTTVHRFEKENRIWTVVLESYVVDMPEGNSEDDTRMFADTVVKLNLQKLATVAEAMARNSGDGSGSQVT | x
L117K: PYR1 mutant (protein, UniProt O49686 1-191, looked up, variant L117K) Abscisic acid receptor PYR1: MPSELTPEERSELKNSIAEFHTYQLDPGSCSSLHAQRIHAPPELVWSIVRRFDKPQTYKHFIKSCSVEQNFEMRVGCTRDVIVISGLPANTSTERLDILDDERRVTGFSIIGGEHRKTNYKSVTTVHRFEKENRIWTVVLESYVVDMPEGNSEDDTRMFADTVVKLNLQKLATVAEAMARNSGDGSGSQVT | x
L117E: PYR1 mutant (protein, UniProt O49686 1-191, looked up, variant L117E) Abscisic acid receptor PYR1: MPSELTPEERSELKNSIAEFHTYQLDPGSCSSLHAQRIHAPPELVWSIVRRFDKPQTYKHFIKSCSVEQNFEMRVGCTRDVIVISGLPANTSTERLDILDDERRVTGFSIIGGEHRETNYKSVTTVHRFEKENRIWTVVLESYVVDMPEGNSEDDTRMFADTVVKLNLQKLATVAEAMARNSGDGSGSQVT | x
L117V: PYR1 mutant (protein, UniProt O49686 1-191, looked up, variant L117V) Abscisic acid receptor PYR1: MPSELTPEERSELKNSIAEFHTYQLDPGSCSSLHAQRIHAPPELVWSIVRRFDKPQTYKHFIKSCSVEQNFEMRVGCTRDVIVISGLPANTSTERLDILDDERRVTGFSIIGGEHRVTNYKSVTTVHRFEKENRIWTVVLESYVVDMPEGNSEDDTRMFADTVVKLNLQKLATVAEAMARNSGDGSGSQVT | x
L117T: PYR1 mutant (protein, UniProt O49686 1-191, looked up, variant L117T) Abscisic acid receptor PYR1: MPSELTPEERSELKNSIAEFHTYQLDPGSCSSLHAQRIHAPPELVWSIVRRFDKPQTYKHFIKSCSVEQNFEMRVGCTRDVIVISGLPANTSTERLDILDDERRVTGFSIIGGEHRTTNYKSVTTVHRFEKENRIWTVVLESYVVDMPEGNSEDDTRMFADTVVKLNLQKLATVAEAMARNSGDGSGSQVT | x
R116G: PYR1 mutant (protein, UniProt O49686 1-191, looked up, variant R116G) Abscisic acid receptor PYR1: MPSELTPEERSELKNSIAEFHTYQLDPGSCSSLHAQRIHAPPELVWSIVRRFDKPQTYKHFIKSCSVEQNFEMRVGCTRDVIVISGLPANTSTERLDILDDERRVTGFSIIGGEHGLTNYKSVTTVHRFEKENRIWTVVLESYVVDMPEGNSEDDTRMFADTVVKLNLQKLATVAEAMARNSGDGSGSQVT | x
L117A: PYR1 mutant (protein, UniProt O49686 1-191, looked up, variant L117A) Abscisic acid receptor PYR1: MPSELTPEERSELKNSIAEFHTYQLDPGSCSSLHAQRIHAPPELVWSIVRRFDKPQTYKHFIKSCSVEQNFEMRVGCTRDVIVISGLPANTSTERLDILDDERRVTGFSIIGGEHRATNYKSVTTVHRFEKENRIWTVVLESYVVDMPEGNSEDDTRMFADTVVKLNLQKLATVAEAMARNSGDGSGSQVT | x
L117H: PYR1 mutant (protein, UniProt O49686 1-191, looked up, variant L117H) Abscisic acid receptor PYR1: MPSELTPEERSELKNSIAEFHTYQLDPGSCSSLHAQRIHAPPELVWSIVRRFDKPQTYKHFIKSCSVEQNFEMRVGCTRDVIVISGLPANTSTERLDILDDERRVTGFSIIGGEHRHTNYKSVTTVHRFEKENRIWTVVLESYVVDMPEGNSEDDTRMFADTVVKLNLQKLATVAEAMARNSGDGSGSQVT | x
L117D: PYR1 mutant (protein, UniProt O49686 1-191, looked up, variant L117D) Abscisic acid receptor PYR1: MPSELTPEERSELKNSIAEFHTYQLDPGSCSSLHAQRIHAPPELVWSIVRRFDKPQTYKHFIKSCSVEQNFEMRVGCTRDVIVISGLPANTSTERLDILDDERRVTGFSIIGGEHRDTNYKSVTTVHRFEKENRIWTVVLESYVVDMPEGNSEDDTRMFADTVVKLNLQKLATVAEAMARNSGDGSGSQVT | x
L117Q: PYR1 mutant (protein, UniProt O49686 1-191, looked up, variant L117Q) Abscisic acid receptor PYR1: MPSELTPEERSELKNSIAEFHTYQLDPGSCSSLHAQRIHAPPELVWSIVRRFDKPQTYKHFIKSCSVEQNFEMRVGCTRDVIVISGLPANTSTERLDILDDERRVTGFSIIGGEHRQTNYKSVTTVHRFEKENRIWTVVLESYVVDMPEGNSEDDTRMFADTVVKLNLQKLATVAEAMARNSGDGSGSQVT | x
L117R: PYR1 mutant (protein, UniProt O49686 1-191, looked up, variant L117R) Abscisic acid receptor PYR1: MPSELTPEERSELKNSIAEFHTYQLDPGSCSSLHAQRIHAPPELVWSIVRRFDKPQTYKHFIKSCSVEQNFEMRVGCTRDVIVISGLPANTSTERLDILDDERRVTGFSIIGGEHRRTNYKSVTTVHRFEKENRIWTVVLESYVVDMPEGNSEDDTRMFADTVVKLNLQKLATVAEAMARNSGDGSGSQVT | x
P148L: PYR1 mutant (protein, UniProt O49686 1-191, looked up, variant P148L) Abscisic acid receptor PYR1: MPSELTPEERSELKNSIAEFHTYQLDPGSCSSLHAQRIHAPPELVWSIVRRFDKPQTYKHFIKSCSVEQNFEMRVGCTRDVIVISGLPANTSTERLDILDDERRVTGFSIIGGEHRLTNYKSVTTVHRFEKENRIWTVVLESYVVDMLEGNSEDDTRMFADTVVKLNLQKLATVAEAMARNSGDGSGSQVT | x
L117P: PYR1 mutant (protein, UniProt O49686 1-191, looked up, variant L117P) Abscisic acid receptor PYR1: MPSELTPEERSELKNSIAEFHTYQLDPGSCSSLHAQRIHAPPELVWSIVRRFDKPQTYKHFIKSCSVEQNFEMRVGCTRDVIVISGLPANTSTERLDILDDERRVTGFSIIGGEHRPTNYKSVTTVHRFEKENRIWTVVLESYVVDMPEGNSEDDTRMFADTVVKLNLQKLATVAEAMARNSGDGSGSQVT | x
L117N: PYR1 mutant (protein, UniProt O49686 1-191, looked up, variant L117N) Abscisic acid receptor PYR1: MPSELTPEERSELKNSIAEFHTYQLDPGSCSSLHAQRIHAPPELVWSIVRRFDKPQTYKHFIKSCSVEQNFEMRVGCTRDVIVISGLPANTSTERLDILDDERRVTGFSIIGGEHRNTNYKSVTTVHRFEKENRIWTVVLESYVVDMPEGNSEDDTRMFADTVVKLNLQKLATVAEAMARNSGDGSGSQVT | x
R116F: PYR1 mutant (protein, UniProt O49686 1-191, looked up, variant R116F) Abscisic acid receptor PYR1: MPSELTPEERSELKNSIAEFHTYQLDPGSCSSLHAQRIHAPPELVWSIVRRFDKPQTYKHFIKSCSVEQNFEMRVGCTRDVIVISGLPANTSTERLDILDDERRVTGFSIIGGEHFLTNYKSVTTVHRFEKENRIWTVVLESYVVDMPEGNSEDDTRMFADTVVKLNLQKLATVAEAMARNSGDGSGSQVT | x
R116I: PYR1 mutant (protein, UniProt O49686 1-191, looked up, variant R116I) Abscisic acid receptor PYR1: MPSELTPEERSELKNSIAEFHTYQLDPGSCSSLHAQRIHAPPELVWSIVRRFDKPQTYKHFIKSCSVEQNFEMRVGCTRDVIVISGLPANTSTERLDILDDERRVTGFSIIGGEHILTNYKSVTTVHRFEKENRIWTVVLESYVVDMPEGNSEDDTRMFADTVVKLNLQKLATVAEAMARNSGDGSGSQVT | x
R116H: PYR1 mutant (protein, UniProt O49686 1-191, looked up, variant R116H) Abscisic acid receptor PYR1: MPSELTPEERSELKNSIAEFHTYQLDPGSCSSLHAQRIHAPPELVWSIVRRFDKPQTYKHFIKSCSVEQNFEMRVGCTRDVIVISGLPANTSTERLDILDDERRVTGFSIIGGEHHLTNYKSVTTVHRFEKENRIWTVVLESYVVDMPEGNSEDDTRMFADTVVKLNLQKLATVAEAMARNSGDGSGSQVT | x
L117W: PYR1 mutant (protein, UniProt O49686 1-191, looked up, variant L117W) Abscisic acid receptor PYR1: MPSELTPEERSELKNSIAEFHTYQLDPGSCSSLHAQRIHAPPELVWSIVRRFDKPQTYKHFIKSCSVEQNFEMRVGCTRDVIVISGLPANTSTERLDILDDERRVTGFSIIGGEHRWTNYKSVTTVHRFEKENRIWTVVLESYVVDMPEGNSEDDTRMFADTVVKLNLQKLATVAEAMARNSGDGSGSQVT | x
